From publication PMC12804074
Values belong to the substance of their own block, whether it stands above or below them.

Experiments:
[1] = biological target: cysteine desulfurase complex (NFS1–ISD11–ACP)2 (human) (UniProt Q9HD34); experiment: ITC
[2] = biological target: (NFS1–ISD11–ACP–ISCU2)2 complex (human) (UniProt Q9HD34); experiment: ITC
[3] = biological target: FXNALC (frataxin labelled with ALC 480) (human) (UniProt Q16595); experiment: flow-induced dispersion analysis
[4] = biological target: FDX2ALC (ferredoxin-2 labelled with ALC 480) (human) (UniProt Q6P4F2); experiment: flow-induced dispersion analysis
Sequence of FDX2ALC (ferredoxin-2 labelled with ALC 480) (human) (Q6P4F2 53-183): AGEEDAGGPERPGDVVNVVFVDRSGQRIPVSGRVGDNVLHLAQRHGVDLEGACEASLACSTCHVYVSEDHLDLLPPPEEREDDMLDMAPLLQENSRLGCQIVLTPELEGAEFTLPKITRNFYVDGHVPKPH

Sequence of ferredoxin-2 (FDX2), wild type (Q6P4F2 53-183): as above

Kd [1]: 39 nM
Substance: FDX2 D179A (from UniProt Q6P4F2 53-183) (natural protein)

KD of the tight-binding exothermic mode [2]: 102 nM
Substance: ferredoxin-2 (FDX2), wild type (from UniProt Q6P4F2 53-183) (natural protein)

Kd [2]: 146 nM
Substance: frataxin (FXN) (from UniProt Q16595 42-210) (natural protein)

Kd [4]: 16000 nM
Substance: (NFS1–ISD11–ACP–ISCU2)2 complex (from UniProt Q9HD34 1-91; O14561 69-156; Q9H1K1-1 35-167)
Kd [3]: 102 nM
